From US20190270826A1 (Janssen / Centocor, published 2019)
Changes are numbered by the printed parent chain.

B1: IAPB17 (antibody, human IgG4 S228P, kappa, F234A L235A, V domains shown)
VH: QVQLVQSGAEVKKPGSSVKVSCKASGGTFSSYAISWVRQAPGQGLEWMGGIIPIFGNANYAQKFQGRVTITADESTSTAYMELSSLRSEDTAVYYCARTIIYLDYVHILDYWGQGTLVTVSS
VL: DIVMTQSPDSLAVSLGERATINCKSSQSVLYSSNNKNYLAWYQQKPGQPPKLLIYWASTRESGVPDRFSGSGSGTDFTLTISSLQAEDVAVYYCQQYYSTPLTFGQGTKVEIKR
notes: IgG4-PAA; whole chains
B2: IAPB09 (antibody, human IgG4 S228P, kappa, F234A L235A, V domains shown)
VH: QVQLVQSGAEVKKPGSSVKVSCKASGGTFSSYAISWVRQAPGQGLEWMGWISPIFGTANYAQKFQGRVTITADESTSTAYMELSSLRSEDTAVYYCARRYDNFARSGDLDYWGQGTLVTVSS
VL: not shown
notes: IgG4-PAA; whole chains; also called IAPB9
B3: IC3B2 (bispecific antibody, human IgG4 S228P, kappa, lambda, F234A L235A)
heavy 1: EVQLVESGGGLVQPGGSLKLSCAASGFTFNTYAMNWVRQASGKGLEWVGRIRSKYNAYATYYAASVKGRFTISRDDSKNTAYLQMNSLKTEDTAVYYCTRHGNFGNSYVSWFAYWGQGTLVTVSSASTKGPSVFPLAPCSRSTSESTAALGCLVKDYFPEPVTVSWNSGALTSGVHTFPAVLQSSGLYSLSSVVTVPSSSLGTKTYTCNVDHKPSNTKVDKRVESKYGPPCPPCPAPEAAGGPSVFLFPPKPKDTLMISRTPEVTCVVVDVSQEDPEVQFNWYVDGVEVHNAKTKPREEQFNSTYRVVSVLTVLHQDWLNGKEYKCKVSNKGLPSSIEKTISKAKGQPREPQVYTLPPSQEEMTKNQVSLTCLVKGFYPSDIAVEWESNGQPENNYKTTPPVLDSDGSFLLYSKLTVDKSRWQEGNVFSCSVMHEALHNHYTQKSLSLSLGK
light 1: QAVVTQEPSLTVSPGGTVTLTCRSSTGAVTTSNYANWVQQKPGQAPRGLIGGTNKRAPGTPARFSGSLLGGKAALTLSGAQPEDEAEYYCALWYSNLWVFGGGTKLTVLGQPKAAPSVTLFPPSSEELQANKATLVCLISDFYPGAVTVAWKADSSPVKAGVETTTPSKQSNNKYAASSYLSLTPEQWKSHRSYSCQVTHEGSTVEKTVAPTECS
heavy 2: not shown
light 2: not shown
notes: IgG4-PAA, Fab arm exchange; also called IAPB38 x CD3B220
B4: IC3B11 (bispecific antibody, human IgG4 S228P, kappa, lambda, F234A L235A)
heavy 1: B3 heavy 1
light 1: B3 light 1
heavy 2: not shown
light 2: not shown
notes: IgG4-PAA, Fab arm exchange; also called IAPB9 x CD3B220
B5: IC3B10 (bispecific antibody, human IgG4 S228P, kappa, lambda, F234A L235A)
heavy 1: B3 heavy 1
light 1: B3 light 1
heavy 2: not shown
light 2: not shown
notes: IgG4-PAA, Fab arm exchange
B6: IAPB47 (antibody, human IgG4 S228P, kappa, F234A L235A, V domains shown)
VH: EVQLVQSGAEVKKPGESLKISCKGSGYSFTSYWIGWVRQMPGKGLEWMGIIYPSDSYTRYSPSFQGQVTISADKSISTAYLQWSSLKASDTAMYYCARRNSAENYADLDYWGQGTLVTVSS
VL: EIVLTQSPGTLSLSPGERATLSCRASQSISNDLNWYQQKPGKAPKLLIYYASSLQSGVPSRFSGSGSGTDFTLTINSLQPEDFATYYCQQSFTAPLTFGQGTKVEIKR
notes: IgG4-PAA; whole chains

Columns and labels:
[1] = molecular target: T1, recombinant cyno IL1RAP ECD (cynomolgus monkey, UniProt P59822 21-367 (rhesus entry)); experiment: recombinant protein
T1 construct: also called rcynoIL1RAP
T1 sequence: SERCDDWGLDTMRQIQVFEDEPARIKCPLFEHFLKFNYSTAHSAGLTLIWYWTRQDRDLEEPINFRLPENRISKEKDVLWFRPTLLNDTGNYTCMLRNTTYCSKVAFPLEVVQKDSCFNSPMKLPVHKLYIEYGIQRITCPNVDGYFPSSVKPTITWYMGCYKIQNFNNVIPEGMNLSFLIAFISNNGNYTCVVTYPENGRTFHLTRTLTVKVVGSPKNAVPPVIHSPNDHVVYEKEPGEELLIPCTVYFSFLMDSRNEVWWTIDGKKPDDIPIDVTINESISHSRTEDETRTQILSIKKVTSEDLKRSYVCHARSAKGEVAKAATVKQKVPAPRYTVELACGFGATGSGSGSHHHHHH

[2] = molecular target: T2, rat IL1RAP ECD displayed on HEK-293F cells (pDisplay) (rat, UniProt Q63621 21-367); experiment: HEK-293F cells (MSD)
T2 sequence: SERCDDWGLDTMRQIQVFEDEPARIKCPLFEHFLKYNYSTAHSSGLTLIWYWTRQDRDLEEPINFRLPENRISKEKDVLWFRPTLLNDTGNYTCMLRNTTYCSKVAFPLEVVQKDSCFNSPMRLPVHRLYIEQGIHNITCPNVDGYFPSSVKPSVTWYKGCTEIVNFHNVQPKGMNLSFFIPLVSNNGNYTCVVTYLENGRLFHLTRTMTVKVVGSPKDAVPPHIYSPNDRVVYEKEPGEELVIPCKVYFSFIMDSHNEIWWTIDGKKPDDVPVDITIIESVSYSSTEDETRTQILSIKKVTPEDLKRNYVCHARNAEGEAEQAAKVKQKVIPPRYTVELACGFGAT

[3] = molecular target: T3, cyno IL1RAP ECD displayed on HEK-293F cells (pDisplay) (cynomolgus monkey, UniProt P59822 21-367 (rhesus entry)); experiment: HEK-293F cells (MSD)
T3 sequence: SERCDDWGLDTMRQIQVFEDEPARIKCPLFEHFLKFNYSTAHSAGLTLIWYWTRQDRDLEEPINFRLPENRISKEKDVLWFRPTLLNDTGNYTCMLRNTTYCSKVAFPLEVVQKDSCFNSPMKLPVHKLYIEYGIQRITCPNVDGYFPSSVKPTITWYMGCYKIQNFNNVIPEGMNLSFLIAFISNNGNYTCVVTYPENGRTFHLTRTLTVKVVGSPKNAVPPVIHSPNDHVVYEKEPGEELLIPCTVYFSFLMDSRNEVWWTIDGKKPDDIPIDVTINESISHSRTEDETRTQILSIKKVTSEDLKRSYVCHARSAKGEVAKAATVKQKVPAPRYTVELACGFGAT

[4] = molecular target: T4, mouse IL1RAP ECD displayed on HEK-293F cells (pDisplay) (mouse, UniProt Q61730 21-367); experiment: HEK-293F cells (MSD)
T4 sequence: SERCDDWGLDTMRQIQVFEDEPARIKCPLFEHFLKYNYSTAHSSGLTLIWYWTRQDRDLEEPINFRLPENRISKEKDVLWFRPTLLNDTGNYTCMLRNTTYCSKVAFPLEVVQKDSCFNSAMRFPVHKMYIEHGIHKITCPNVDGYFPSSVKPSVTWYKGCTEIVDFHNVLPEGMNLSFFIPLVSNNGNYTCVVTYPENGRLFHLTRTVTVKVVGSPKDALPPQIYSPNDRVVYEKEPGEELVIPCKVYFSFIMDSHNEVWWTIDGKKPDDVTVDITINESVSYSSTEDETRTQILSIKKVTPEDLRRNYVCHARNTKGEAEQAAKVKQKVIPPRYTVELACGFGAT

[5] = molecular target: T5, recombinant human IL1RAP ECD (human, UniProt Q9NPH3 21-367); experiment: SPR (ProteOn)
T5 construct: His-tagged; also called hIL1RAP-ECD; rhuIL1RAP
T5 sequence: T1 sequence with F183L, P273T, T326K
Experimental: The rates of IL1RAP ECD association and dissociation were measured for each variant. The biosensor surface was prepared by covalently coupling Goat anti-Human IgG (Fc) to the surface of a GLC chip (BioRad) using the manufacturer instructions for amine-coupling chemistry. […] The RU immobilized also included a goat anti-mouse Fc antibody that was added to capture other antibodies not included in the ones reported here. Since the mixture was 1:1 about 50% of these RU immobilized are expected to be goat anti-human Fc. The kinetic experiments were performed at 25° C. in running buffer (PBS pH 7.4, 0.005% P20, 3 mM EDTA). […] (1:3) serial dilutions of human IL1RAP ECD, starting at 400 nM were prepared in running buffer. […] The reference spots (Goat anti-Human IgG (Fc)-modified surface) containing no candidate captured were used as a reference surface. Capture of mAb was followed by a 3 minute injection (association phase) of antigen at 40 μL/min, followed by 10 minutes of buffer flow (dissociation phase). […] Data was processed on the instrument software. Double reference subtraction of the data was performed by subtracting the curves generated by buffer injection from the reference-subtracted curves for analyte injections. Kinetic analysis of the data was performed using 1:1 Langmuir binding model with group fit.

[6] = molecular target: T5, recombinant human IL1RAP ECD; experiment: SPR, summary
[7] = molecular target: T4, mouse IL1RAP ECD displayed on HEK-293F …; experiment: Murine Binder, summary
[8] = molecular target: T5, recombinant human IL1RAP ECD; experiment: SPR, summary; remark: listed apart in the source
[9] = molecular target: T1, recombinant cyno IL1RAP ECD; experiment: SPR, summary
[10] = molecular target: T5, recombinant human IL1RAP ECD; experiment: SPR
[11] = molecular target: T1, recombinant cyno IL1RAP ECD; experiment: SPR
[12] = molecular target: T1, recombinant cyno IL1RAP ECD; experiment: SPR; remark: listed apart in the source
[13] = molecular target: T5, recombinant human IL1RAP ECD; experiment: SPR; human KD over cyno KD
[14] = molecular target: T6, human IL1RAP on cells (endogenous) (human, UniProt Q9NPH3 21-570); experiment: cell-based or functional assay
T6 sequence (looked up): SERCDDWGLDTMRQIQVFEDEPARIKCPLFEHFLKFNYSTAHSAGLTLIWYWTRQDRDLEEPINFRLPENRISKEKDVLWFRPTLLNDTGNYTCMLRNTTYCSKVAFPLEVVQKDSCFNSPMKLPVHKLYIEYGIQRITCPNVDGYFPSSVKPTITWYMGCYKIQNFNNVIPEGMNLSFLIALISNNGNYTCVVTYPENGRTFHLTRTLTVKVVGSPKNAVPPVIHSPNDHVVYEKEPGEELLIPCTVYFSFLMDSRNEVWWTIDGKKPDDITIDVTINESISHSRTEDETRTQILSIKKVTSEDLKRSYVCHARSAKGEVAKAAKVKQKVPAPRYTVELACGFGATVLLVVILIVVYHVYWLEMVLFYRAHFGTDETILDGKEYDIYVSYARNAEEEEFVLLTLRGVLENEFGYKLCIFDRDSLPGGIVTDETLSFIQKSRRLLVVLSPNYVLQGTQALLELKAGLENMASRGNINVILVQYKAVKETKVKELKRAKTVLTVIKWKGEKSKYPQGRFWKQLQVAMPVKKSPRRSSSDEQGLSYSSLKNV

[15] = molecular target: T5, recombinant human IL1RAP ECD; experiment: SPR; remark: listed apart in the source

Binder | binding result [1] | binding result [2] | binding result [3] | binding result [4] | Kd [5] [nM] | koff [5] [s⁻¹] | kon [5] [M⁻¹ s⁻¹] | Kd [6] [nM] | binding result [7] | Kd [8] [nM] | Kd [9] [nM] | Kd [10] [nM] | Kd [11] [nM] | Kd [12] [nM] | koff [12] [s⁻¹] | kon [12] [M⁻¹ s⁻¹] | Hu/Cyno KD Ratio [13] | EC50, T-cell mediated cytotoxicity [14] [nM] | Kd [15] [nM] | koff [15] [s⁻¹] | other results
B1 | binds | binds | binds | binds | 8.51 | 0.00719 | 844000 | 8.51 |  |  |  |  |  |  |  |  |  |  |  |  | 
B2 | binds | binds | binds | binds | 6.59 | 0.00379 | 574000 | 6.59 |  |  |  |  |  |  |  |  |  |  |  |  | 
B3 |  |  |  |  |  |  |  |  | binds | 7.36 | 16.9 | 7.36 | 16.9 | 16.9 | 0.00223 | 132000 | 0.4 | 0.077 | 7.36 | 0.000827 | kon [15]: 112000 M⁻¹ s⁻¹
B4 |  |  |  |  |  |  |  |  | binds | 4.56 | 5.27 | 4.56 | 5.27 | 5.27 | 0.00409 | 776000 | 0.9 | 1.32 | 4.56 | 0.00354 | kon [15]: 776000 M⁻¹ s⁻¹
B5 |  |  |  |  |  |  |  |  | binds | 4.77 |  | 4.77 |  |  |  |  |  | 0.124 | 4.77 |  | 
B6 | binds | binds | binds | binds | 1.24 | 0.000811 | 653000 | 1.24 |  |  |  |  |  |  |  |  |  |  |  |  | 
